The target in this data set is HPV16 E7 (His-E7) (Human papillomavirus type 16, UniProt P03129 1-98). Kind of data set: EMSA; inhibited by excess unlabeled probe; EMSA buffer, salt, pH and temperature not given; UV crosslinking: 20 min incubation in binding buffer (composition not given), 254 nm 30 min on ice. The following applies: protein: recombinant; tags: His; label: biotin; blunt. In general terms: A gel shift assay detects complexes by their altered migration in electrophoresis.
HPV16 E7 (His-E7), sequence (P03129 whole entry): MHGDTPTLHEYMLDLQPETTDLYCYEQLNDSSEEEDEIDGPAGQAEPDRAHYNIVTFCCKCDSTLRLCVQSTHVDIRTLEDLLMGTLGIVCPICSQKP

B1: MALAT1 promoter probe1 (dsDNA)
DNA 1: CAGGCGTTAGGGCGGGGCGCGCGTGC
DNA 2: GCACGCGCGCCCCGCCCTAACGCCTG
modifications: 5'-biotin
B1: the binding result was “binds”.

B2: MALAT1 promoter probe2 (dsDNA)
DNA 1: AGCTGCCACCCCGCCCCCATGCCAT
DNA 2: ATGGCATGGGGGCGGGGTGGCAGCT
modifications: 5'-biotin
Turning to B2, the binding result is reported as “binds”.

Values taken from publication PMC8489136, “LncRNA MALAT1 was regulated by HPV16 E7 independently of pRB in cervical cancer cells”.
